Article PMC2823488

Columns and labels:
Assay in all cases: EMSA
[1] = molecular target: TLS (UniProt P35637 1-526)
[2] = molecular target: GST-TLS 373-526 (UniProt P35637 373-526)
[3] = molecular target: GST-TLS 211-526 (UniProt P35637 211-526)
Chain of GST-TLS 211-526 (P35637 211-526): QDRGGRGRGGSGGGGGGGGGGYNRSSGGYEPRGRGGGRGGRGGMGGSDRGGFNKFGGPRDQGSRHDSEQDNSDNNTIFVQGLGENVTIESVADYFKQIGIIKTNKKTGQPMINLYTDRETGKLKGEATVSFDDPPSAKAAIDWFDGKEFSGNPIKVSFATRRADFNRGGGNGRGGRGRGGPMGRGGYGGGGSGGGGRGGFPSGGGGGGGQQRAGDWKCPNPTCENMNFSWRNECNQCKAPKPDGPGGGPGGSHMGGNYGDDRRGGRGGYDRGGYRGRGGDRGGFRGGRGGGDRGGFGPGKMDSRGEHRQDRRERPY

Chain of TLS (P35637 whole entry): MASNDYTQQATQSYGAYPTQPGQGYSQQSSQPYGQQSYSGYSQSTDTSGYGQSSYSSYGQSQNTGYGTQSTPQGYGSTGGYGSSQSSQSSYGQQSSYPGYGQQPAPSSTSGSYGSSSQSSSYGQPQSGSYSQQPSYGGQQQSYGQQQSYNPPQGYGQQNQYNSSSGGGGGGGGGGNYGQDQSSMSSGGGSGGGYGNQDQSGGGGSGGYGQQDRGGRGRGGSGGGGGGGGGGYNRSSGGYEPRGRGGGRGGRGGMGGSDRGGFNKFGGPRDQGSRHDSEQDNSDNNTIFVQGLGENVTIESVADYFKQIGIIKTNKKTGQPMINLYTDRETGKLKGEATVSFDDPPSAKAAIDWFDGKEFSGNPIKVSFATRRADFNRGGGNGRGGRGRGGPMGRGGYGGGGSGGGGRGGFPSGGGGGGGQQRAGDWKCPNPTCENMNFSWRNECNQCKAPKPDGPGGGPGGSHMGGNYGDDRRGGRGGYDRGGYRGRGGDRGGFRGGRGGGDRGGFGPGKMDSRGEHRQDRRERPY
Chain of GST-TLS 373-526 (P35637 373-526): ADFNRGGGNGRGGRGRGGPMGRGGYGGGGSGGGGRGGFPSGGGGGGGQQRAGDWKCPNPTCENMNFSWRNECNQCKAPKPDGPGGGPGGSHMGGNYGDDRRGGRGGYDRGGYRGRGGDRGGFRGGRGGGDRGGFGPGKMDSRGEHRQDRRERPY

Row | Binder | binding result [1] | binding result [2] | binding result [3]
1 | UCCAGCAGCAGCCCAAGAUGGUGGC (ssRNA) [-764a] | no binding | – | –
2 | UUGUAUUUUGAGCUAGUUUGGUGAC (ssRNA) [GGUG-oligonucleotide] | binds | binds | binds
3 | GACACCCCATATCCAAGCCGGCAGA (ssDNA) [DNA (complement of -454s)] | no binding | – | –
4 | UGGCAUCGUGAUGGACUCCGGUGAC (ssRNA) [β-actin RNA] | no binding | – | –
5 | UCUGCCGGCUUGGAUAUGGGGUGUC (ssRNA) [-454s (RNA in Fig. 4g)] | binds | – | –
6 | RNA:DNA hybrid of -454s (DNA:RNA) RNA: UCUGCCGGCUUGGAUAUGGGGUGUC DNA: GACACCCCATATCCAAGCCGGCAGA | no binding | – | –
7 | CCCGGGAUUUAGGGGGUGAGGUGGA (ssRNA) [-341a] | binds | – | –
